{"source": "patent US20230131056A1", "about": "(Stanford University, published 2023)", "binders": {"B1": {"name": "Clone #3 (128-6 mutations, yeast displayed sPD-1 mutant) (receptor)", "chain": "LDSPDRPWNPPTFSPALLVVTEGDNATFTCSFSNTSESFVLNWYRMSPSNQTDKLAAFPEDRGQLGQDCRFRVTQLPNGRDFHMSVVRARRNDSGTYLCSAIVLAPKIQIKESLRVELRVTERRAEVPTAHPSPSPRPAGQFQTLV"}, "B2": {"name": "Clone #1 (121-5 mutations, yeast displayed sPD-1 mutant) (receptor)", "chain": "B1 chain with G63S"}, "B3": {"name": "Clone #2 (120-5 mutations, yeast displayed sPD-1 mutant) (receptor)", "chain": "B1 chain with L65P"}, "B4": {"name": "Clone #4 (100-4 mutations, yeast displayed sPD-1 mutant) (receptor)", "chain": "B1 chain with G63S, L65P"}, "B5": {"name": "Clone #5 (62-3 mutations, yeast displayed sPD-1 mutant) (receptor)", "chain": "B1 chain with G63S, L65P, V116A"}, "B6": {"name": "original mutant sPD-1 (7 mutations, yeast displayed) (receptor)", "chain": "B1 chain with S38G", "notes": "also called initial Mutant PD-1 clone; 2-7 mutations"}}, "key": {"[1]": {"biological_target": "T1, PD-L2-Fc (human PD-L2) (human, UniProt Q9BQ51 20-220, limits assumed)", "T1 construct": "not shown: Fc portion", "T1 sequence (looked up)": "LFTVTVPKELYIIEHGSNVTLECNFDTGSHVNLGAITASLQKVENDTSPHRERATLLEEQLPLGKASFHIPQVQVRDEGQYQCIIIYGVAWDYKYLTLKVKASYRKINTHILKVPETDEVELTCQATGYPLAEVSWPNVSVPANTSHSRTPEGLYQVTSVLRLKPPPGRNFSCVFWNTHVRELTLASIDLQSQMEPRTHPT", "experiment": "yeast surface display binding assay for PDL2 (summary list)"}, "[2]": {"biological_target": "T1, PD-L2-Fc (human PD-L2)", "experiment": "yeast surface display, flow cytometry titration with soluble PDL2"}, "[3]": {"biological_target": "T1, PD-L2-Fc (human PD-L2)", "experiment": "yeast surface display, flow cytometry titration with soluble PDL2 (cell binding A.U. against PDL2 concentration)"}, "[4]": {"biological_target": "T2, PDL1-Fc (human PD-L1) (human, UniProt Q9NZQ7 19-238, limits assumed)", "T2 construct": "not shown: Fc portion", "T2 sequence (Q9NZQ7 19-238 limits assumed)": "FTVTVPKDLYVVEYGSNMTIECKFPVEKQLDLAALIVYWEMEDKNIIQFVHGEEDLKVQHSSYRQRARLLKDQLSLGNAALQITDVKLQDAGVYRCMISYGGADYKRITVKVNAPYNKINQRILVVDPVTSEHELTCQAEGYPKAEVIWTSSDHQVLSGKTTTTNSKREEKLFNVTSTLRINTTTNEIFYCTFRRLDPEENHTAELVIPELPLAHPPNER", "experiment": "yeast surface display binding assay for PDL1 (summary list)"}, "[5]": {"biological_target": "T1, PD-L2-Fc (human PD-L2)", "experiment": "yeast surface display, flow cytometry titration with soluble PDL2", "remark": "listed apart in the source"}, "[6]": {"biological_target": "T2, PDL1-Fc (human PD-L1)", "experiment": "yeast surface display, flow cytometry titration with soluble PDL1 (cell binding A.U. against PDL1 concentration)"}, "[7]": {"biological_target": "T1, PD-L2-Fc (human PD-L2)", "experiment": "yeast surface display, flow cytometry titration with soluble PDL2 (cell binding A.U. against PDL2 concentration)", "remark": "listed apart in the source"}, "[8]": {"biological_target": "T2, PDL1-Fc (human PD-L1)", "experiment": "yeast surface display, flow cytometry titration with soluble PDL1 (cell binding A.U. against PDL1 concentration)", "remark": "listed apart in the source"}, "[9]": {"biological_target": "T1, PD-L2-Fc (human PD-L2)", "experiment": "yeast surface display, flow cytometry titration with soluble PDL2 (cell binding A.U. against PDL2 concentration)", "remark": "listed apart in the source"}, "[10]": {"biological_target": "T1, PD-L2-Fc (human PD-L2)", "experiment": "yeast surface display, flow cytometry titration with soluble PDL2", "remark": "listed apart in the source"}, "[11]": {"biological_target": "T2, PDL1-Fc (human PD-L1)", "experiment": "yeast surface display, flow cytometry titration with soluble PDL1 (cell binding A.U. against PDL1 concentration)", "remark": "listed apart in the source"}, "[12]": {"biological_target": "T1, PD-L2-Fc (human PD-L2)", "experiment": "yeast surface display, flow cytometry titration with soluble PDL2 (cell binding A.U. against PDL2 concentration)", "remark": "listed apart in the source"}, "[13]": {"biological_target": "T2, PDL1-Fc (human PD-L1)", "experiment": "yeast surface display, flow cytometry titration with soluble PDL1"}, "[14]": {"biological_target": "T1, PD-L2-Fc (human PD-L2)", "experiment": "yeast surface display, flow cytometry titration with soluble PDL2", "remark": "listed apart in the source"}, "[15]": {"biological_target": "T2, PDL1-Fc (human PD-L1)", "experiment": "yeast surface display, flow cytometry titration with soluble PDL1 (cell binding A.U. against PDL1 concentration)", "remark": "listed apart in the source"}, "[16]": {"biological_target": "T1, PD-L2-Fc (human PD-L2)", "experiment": "yeast surface display, flow cytometry titration with soluble PDL2 (cell binding A.U. against PDL2 concentration)", "remark": "listed apart in the source"}, "[17]": {"biological_target": "T2, PDL1-Fc (human PD-L1)", "experiment": "yeast surface display, flow cytometry titration with soluble PDL1", "remark": "listed apart in the source"}, "[18]": {"biological_target": "T1, PD-L2-Fc (human PD-L2)", "experiment": "yeast surface display, flow cytometry titration with soluble PDL2", "remark": "listed apart in the source"}, "[19]": {"biological_target": "T2, PDL1-Fc (human PD-L1)", "experiment": "yeast surface display, flow cytometry titration with soluble PDL1 (cell binding A.U. against PDL1 concentration)", "remark": "listed apart in the source"}, "[20]": {"biological_target": "T1, PD-L2-Fc (human PD-L2)", "experiment": "yeast surface display, flow cytometry titration with soluble PDL2 (cell binding A.U. against PDL2 concentration)", "remark": "listed apart in the source"}}, "note": "Changes are numbered by the printed parent chain. Read-outs that look alike come from different tables or passages of the source.", "data": [{"binder": "B1", "values": [{"measurement": "Kd", "setting": "[1]", "value": 1.1, "unit": "nM"}, {"measurement": "EC50 (read off the curve)", "setting": "[2]", "value": "~1", "unit": "nM"}, {"measurement": "Kd", "setting": "[3]", "value": 1.1, "unit": "nM"}]}, {"binder": "B2", "values": [{"measurement": "Kd", "setting": "[4]", "value": 0.03, "unit": "nM"}, {"measurement": "Kd", "setting": "[1]", "value": 1.4, "unit": "nM"}, {"measurement": "EC50 (read off the curve)", "setting": "[5]", "value": "~1", "unit": "nM"}, {"measurement": "Kd", "setting": "[6]", "value": 0.03, "unit": "nM"}, {"measurement": "Kd", "setting": "[7]", "value": 1.4, "unit": "nM"}]}, {"binder": "B3", "values": [{"measurement": "Kd", "setting": "[4]", "value": 0.12, "unit": "nM"}, {"measurement": "Kd", "setting": "[1]", "value": 0.11, "unit": "nM"}, {"measurement": "Kd", "setting": "[8]", "value": 0.12, "unit": "nM"}, {"measurement": "Kd", "setting": "[9]", "value": 0.11, "unit": "nM"}]}, {"binder": "B4", "values": [{"measurement": "Kd", "setting": "[4]", "value": 0.08, "unit": "nM"}, {"measurement": "Kd", "setting": "[1]", "value": 0.87, "unit": "nM"}, {"measurement": "EC50 (read off the curve)", "setting": "[10]", "value": "~0.9", "unit": "nM"}, {"measurement": "Kd", "setting": "[11]", "value": 0.08, "unit": "nM"}, {"measurement": "Kd", "setting": "[12]", "value": 0.87, "unit": "nM"}]}, {"binder": "B5", "values": [{"measurement": "Kd", "setting": "[4]", "value": 0.8, "unit": "nM"}, {"measurement": "Kd", "setting": "[1]", "value": 4.1, "unit": "nM"}, {"measurement": "EC50 (read off the curve)", "setting": "[13]", "value": "~0.8", "unit": "nM"}, {"measurement": "EC50 (read off the curve)", "setting": "[14]", "value": "~4", "unit": "nM"}, {"measurement": "Kd", "setting": "[15]", "value": 0.8, "unit": "nM"}, {"measurement": "Kd", "setting": "[16]", "value": 4.1, "unit": "nM"}]}, {"binder": "B6", "values": [{"measurement": "Kd", "setting": "[4]", "value": 0.44, "unit": "nM"}, {"measurement": "Kd", "setting": "[1]", "value": 2.6, "unit": "nM"}, {"measurement": "EC50 (read off the curve)", "setting": "[17]", "value": "~0.4", "unit": "nM"}, {"measurement": "EC50 (read off the curve)", "setting": "[18]", "value": "~3", "unit": "nM"}, {"measurement": "Kd", "setting": "[19]", "value": 0.44, "unit": "nM"}, {"measurement": "Kd", "setting": "[20]", "value": 2.6, "unit": "nM"}]}]}
